Assays:
[1] = target: HTR2A N107A^2.37 mutant (human) (UniProt P28223)
[2] = target: HTR2A R185A^ICL2 mutant (human) (UniProt P28223)

Substance: Gαq wild-type (GαrLuc8 of the BRET2 assay) (from UniProt P50148 1-359) (natural protein)
- BRET2 assay, decrease of the efficacy of 25CN-NBOH [1]: 50%
- BRET2 assay, decrease of the efficacy of 25CN-NBOH [2]: 50%
